Source: US20150044251A1 (Novartis, published 2015)

B1: EsxAB hybrid polypeptide (other)
chain: MAMIKMSPEEIRAKSQSYGQGSDQIRQILSDLTRAQGEIAANWEGQAFSRFEEQFQQLSPKVEKFAQLLEEIKQQLNSTADAVQEQDQQLSNNFGLQASGGGSGGYKGIKADGGKVDQAKQLAAKTAKDIEACQKQTQQLAEYIEGSDWEGQFANKVKDVLLIMAKFQEELVQPMADHQKAIDNLSQNLAKYDTLSIKQGLDRVNP
notes: also called EsxAB monomer
B2: Sta006 (other)
chain: MASCGNQGEKNNKAETKSYKMDDGKTVDIPKDPKRIAVVAPTYAGGLKKLGANIVAVNQQVDQSKVLKDKFKGVTKIGDGDVEKVAKEKPDLIIVYSTDKDIKKYQKVAPTVVVDYNKHKYLEQQEMLGKIVGKEDKVKAWKKDWEETTAKDGKEIKKAIGQDATVSLFDEFDKKLYTYGDNWGRGGEVLYQAFGLKMQPEQQKLTAKAGWAEVKQEEIEKYAGDYIVSTSEGKPTPGYESTNMWKNLKATKEGHIVKVDAGTYWYNDPYTLDFMRKDLKEKLIKAAK
notes: Seen as monomer and dimer in the formulations

Assays:
Sta006 = target: B2; assay: capillary electrophoresis (SDS-MW) of tetravalent formulation, pH 6, no EDTA, 25 C up to 72 h; attributed to redox reactions
Protocol: (§1) Capillary Electrophoresis analyses were performed with a Beckman Coulter PA800 instrument, SDS-MW application. The sample was prepared by mixing 90 μL of the pre-lyophilized formulation with 10 μL of TRIS-SDS buffer.

[1] = target: the molecule itself; assay: capillary electrophoresis (SDS-MW) of tetravalent formulation, pH 6, no EDTA, 25 C up to 72 h; self-association (disulfide-linked dimer)
Protocol: as §1

[2] = target: the molecule itself; assay: SEC-HPLC of tetravalent pre-lyophilized formulation; self-association (dimer peak)

Binder | binding result (Sta006) | binding result [1] | binding result [2]
B1 | binds | binds | 
B2 |  |  | binds
